“Also recorded” adds a separate entry of the source. Where two headings read alike, the source gives them in different places.
Legend:
apelin-13 [1] = target: apelin-13 (Homo sapiens, UniProt Q9BYF1); details: cited from earlier work
angiotensin II = angiotensin II (Homo sapiens, UniProt Q9BYF1); details: cited from earlier work
angiotensin I = angiotensin I (Homo sapiens, UniProt Q9BYF1); details: cited from earlier work
dynorphin-13 = dynorphin-13 (Homo sapiens, UniProt Q9BYF1); details: cited from earlier work
Mca-APK(Dnp) = details: cited from earlier work
Ang II = test: Mass spectrometry analysis of peptides generated from Ang II by ACE2-Fc; details: Ang II peptide as substrate
[2] = test system: Spike (SARS-CoV-2) pseudotyped lentivirus; assay type: cell-based
ACE2 = ACE2 (Homo sapiens, UniProt Q9BYF1); details: cited from earlier work
[3] = degradation of AngII by the fusion; cited from earlier work
[4] = target: RBD of SARS-CoV-2 spike protein (Severe acute respiratory syndrome coronavirus 2, UniProt P0DTC2)
[5] = mice, up to two months; cited from earlier work
AngII = test: Phenylalanine Assay: ACE2 peptidase activity with AngII as substrate; details: phenylalanine hydrolysis, 20 min, 37° C.
Method: (§1) ACE2 peptidase activity measured using physiological substrates of AngII and apelin-13. […] It involves two coupled reactions, hydrolysis of the C-terminus phenylalanine residues from the substrates by ACE2 catalysis and the measurement of free amino acid phenylalanine using yeast enzyme of phenylalanine ammonia lyase (PAL) in a colorimetric assay (supplementary Figure S2).
(§2) The reactions were carried out using indicated concentrations of ACE2-Fc proteins together with either AngII or apelin-13 at indicated concentrations in reaction buffer containing 20 mM Tris-HCl, pH=7.4, 136 mM NaCl and 10 μM ZnC12. The first reaction was proceeded at 37° C. after 20 min before stopped by 80° C. heat inactivation for 5 min. The second reaction used a phenylalanine detection kit (Sigma-Aldrich, St. Louis, Mo.). 1 μL enzyme mix and 1 μL developer from the kit were added to the above reaction, which was allowed to proceed for 20 min at room temperature. Fluorescence intensity was measured at 535 nm excitation and 585 nm emission wavelength, and all reactions were performed in triplicate.
(§3) We performed Mca-APK(Dnp) measurements, alongside phenylalanine hydrolysis assays using AngII and apelin-13 as substrates to determine the enzymatic activities of the ACE2-Fc variants (FIG. 2A-C). […] The first method used an excess amount of the enzyme (100 ng) in reactions with varying concentrations of the three substrates. This would potentially detect low partial activity of enzymes.

apelin-13 [6] = test: Phenylalanine Assay: ACE2 peptidase activity with apelin-13 as substrate; details: phenylalanine hydrolysis, 20 min, 37° C.
Method: as §1, §2, §3

[7] = test system: Mca-APK(Dnp) surrogate fluorogenic substrate; details: 20 min reaction, compared with wild-type ACE2-Fc
Method: ACE2 peptidase activity measured using surrogate Mca-APK(Dnp). ACE2-Fc peptidase activity assay using surrogate fluorogenic substrate Mca-APK(Dnp) (Enzo Life Sciences, Farmingdale, N.Y.) was performed in black microtiter plates. The reaction buffer contained 50 mM 4-morpholineethanesulfonic acid, pH=6.5, 300 mM NaCl, 10 μM ZnC12, 0.01% Triton X-100 and 20 μM of Mca-APK(Dnp). The total reaction volume was 100 μL at room temperature and the duration of the reactions were 20 min. Peptidase activities were calculated as fluorescence intensity at 320 nm excitation and 420 nm emission wavelength.
In parallel, we performed ACE2 activity assays using either Mca-APK(Dnp) or synthetic Ang II peptide as substrate together with individual variants of ACE2-Fc as the enzyme. By using Mca-APK(Dnp), fluorescence signals at 328 nm excitation and 393 nm emission were recorded.

Sequence of ACE2 (Q9BYF1 18-805): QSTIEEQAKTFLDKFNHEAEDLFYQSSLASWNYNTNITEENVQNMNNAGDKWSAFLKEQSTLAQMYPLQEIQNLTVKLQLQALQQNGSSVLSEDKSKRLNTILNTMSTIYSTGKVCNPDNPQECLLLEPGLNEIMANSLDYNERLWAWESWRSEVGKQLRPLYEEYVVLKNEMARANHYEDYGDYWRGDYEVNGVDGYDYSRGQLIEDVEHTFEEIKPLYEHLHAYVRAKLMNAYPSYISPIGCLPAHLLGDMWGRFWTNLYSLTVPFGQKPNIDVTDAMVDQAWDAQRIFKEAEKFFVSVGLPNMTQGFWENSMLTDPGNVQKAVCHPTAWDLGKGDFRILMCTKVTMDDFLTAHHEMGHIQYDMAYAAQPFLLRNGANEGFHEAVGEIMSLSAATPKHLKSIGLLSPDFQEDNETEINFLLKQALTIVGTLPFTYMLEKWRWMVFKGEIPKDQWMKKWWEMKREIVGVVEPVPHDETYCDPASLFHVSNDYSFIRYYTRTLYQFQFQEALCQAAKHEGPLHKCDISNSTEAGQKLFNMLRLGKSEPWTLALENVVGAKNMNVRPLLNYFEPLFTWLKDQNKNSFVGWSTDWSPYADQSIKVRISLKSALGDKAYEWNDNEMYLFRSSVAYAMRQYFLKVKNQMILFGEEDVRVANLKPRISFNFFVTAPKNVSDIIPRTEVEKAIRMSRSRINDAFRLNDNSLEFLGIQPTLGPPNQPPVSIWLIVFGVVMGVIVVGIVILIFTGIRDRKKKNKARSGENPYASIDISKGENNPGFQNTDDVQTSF
Sequence of dynorphin-13 (Q9BYF1 18-805): as above
Sequence of angiotensin I (Q9BYF1 18-805): as above
Sequence of angiotensin II (Q9BYF1 18-805): as above
Sequence of apelin-13 (Homo sapiens, UniProt Q9BYF1) (Q9BYF1 18-805): as above

angiotensin converting enzyme 2 [ACE2]
Km (apelin-13 [1]): 6.8 µM | Km (angiotensin II): 2 µM | Km (angiotensin I): 6.9 µM | Km (dynorphin-13): 5.5 µM

H374N/H378N: Glasgow et al. ACE2 trap with double mutations of the Zn2+-binding residues
activity against Mca-APK(Dnp) (Glasgow et al.) (Mca-APK(Dnp)): loss-of-activity

H345A: ACE2-Fc fusion with single alanine substitution of His345
generation of Ang 1-7 from Ang II by mass spectrometry (Ang II): full activity; also recorded: remained fully active | generation of Ang 1-7 from Ang II by mass spectrometry (Ang II; listed as ACE2-Fc H345A): full activity

R273A
IC50 of pseudotyped viral transduction [2]: 0.19 µg/mL | inhibition of pseudotyped viral transduction (in words) [2]: could suppress the transduction of a pseudotyped virus | generation of Ang 1-7 from Ang II by mass spectrometry (Ang II): loss of activity | generation of Ang 1-7 from Ang II by mass spectrometry (Ang II; listed as ACE2-Fc R273A): no Ang 1-7 signal was observed

O=C(O)CN(CCN(CC(=O)O)CC(=O)O)CC(=O)O [EDTA]
inhibition of ACE2 (ACE2): inhibited

CC(C)C[C@H](N[C@@H](Cc1cncn1Cc1cc(Cl)cc(Cl)c1)C(=O)O)C(=O)O [MLN-4760]
inhibition of ACE2 (ACE2): inhibited

wild-type ACE2-Fc: ectodomain of human ACE2 fused to the N-terminus of Fc domain of human IgG1; forms a dimer
blood pressure control [3]: blood pressure control for up to two weeks | binding to SARS-CoV-2 spike RBD [4]: highest binding affinity | tolerability of repeated doses [5]: well tolerated

H378A: ACE2-Fc fusion with single alanine substitution of Zn2+-binding residue His378; loss-of-activity variant
peptidase activity toward AngII (Phe release) (AngII): inactivate ACE2; also recorded: completely lost their enzymatic activity | peptidase activity toward AngII (Phe release) (AngII; listed as His378Ala): completely lack of peptidase activity | IC50 of pseudotyped viral transduction [2]: 0.16 µg/mL | inhibition of pseudotyped viral transduction (in words) [2]: could suppress the transduction of a pseudotyped virus | peptidase activity toward apelin-13 (Phe release) (apelin-13 [6]): inactivate ACE2; also recorded: completely lost their enzymatic activity | peptidase activity toward apelin-13 (Phe release) (apelin-13 [6]; listed as His378Ala): completely lack of peptidase activity | peptidase activity toward surrogate substrate Mca-APK(Dnp) [7]: completely lost their enzymatic activity | peptidase activity toward surrogate substrate Mca-APK(Dnp) ([7]; listed as His378Ala): completely lack of peptidase activity

E402A: ACE2-Fc fusion with single alanine substitution of Zn2+-binding residue Glu402; loss-of-activity variant
peptidase activity toward AngII (Phe release) (AngII): inactivate ACE2; also recorded: completely lost their enzymatic activity | peptidase activity toward AngII (Phe release) (AngII; listed as Glu402Ala): completely lack of peptidase activity | IC50 of pseudotyped viral transduction [2]: 0.25 µg/mL | inhibition of pseudotyped viral transduction (in words) [2]: could suppress the transduction of a pseudotyped virus | peptidase activity toward apelin-13 (Phe release) (apelin-13 [6]): inactivate ACE2; also recorded: completely lost their enzymatic activity | peptidase activity toward apelin-13 (Phe release) (apelin-13 [6]; listed as Glu402Ala): completely lack of peptidase activity | peptidase activity toward surrogate substrate Mca-APK(Dnp) [7]: completely lost their enzymatic activity | peptidase activity toward surrogate substrate Mca-APK(Dnp) ([7]; listed as Glu402Ala): completely lack of peptidase activity

NCCCC[C@H](N[C@@H](CCc1ccccc1)C(=O)O)C(=O)N1CCC[C@H]1C(=O)O [linosipril]
inhibition of ACE2 (ACE2): not

C[C@H](CS)C(=O)N1CCC[C@H]1C(=O)O [captopril]
inhibition of ACE2 (ACE2): not

H345L: Glasgow et al. ACE2 trap with H345L mutation at the catalytic center
activity against Mca-APK(Dnp) (Glasgow et al.) (Mca-APK(Dnp)): loss-of-activity

Source: patent US20230265407A1, “HUMAN RECOMBINANT ACE2-FC MUTANTS THAT DECOUPLE ANTI-SARS-COV-2 ACTIVITY FROM CARD[…]” (Northwestern University, priority 2020, published 2023)
